Each block holds one binder with its values, some of them ahead of it.
Assays:
[1] = target: T1, human CD137 expressed on cells (human, UniProt Q07011 24-255); experiment: cell-based or functional assay
[2] = target: T1, human CD137 expressed on cells; experiment: flow cytometry, Flp-In-CHO::huCD137 cells
Protocol: (§1) The geometric means of the fluorescence intensity were used to calculate EC₅₀ values using nonlinear regression (shared bottom, SLOPE=1).
(§2) 5×10⁴ cells per well were incubated for 1 h in ice-cold PBS containing 5% fetal calf serum (PBS-FCS). A dilution series of the fusion proteins and control antibodies were added to the cells and incubated for 1 h on ice. Cells were washed twice with PBS and then incubated with a goat anti-hIgG Alexa647-labeled antibody for 30 min on ice. Cells were subsequently washed and analyzed using iQue Flow cytometer (Intellicyte Screener). Mean geometric fluorescent signals were plotted and fitted with Graphpad software using nonlinear regression (shared bottom, SLOPE=1).

[3] = target: T2, cynomolgus PD-L1 expressed on cells (cynomolgus); experiment: flow cytometry, Flp-In-CHO::cynoPDL-1 cells
T2 construct: whole, on cells; also called Flp-In-CHO::cynoPDL-1
Protocol: as §1, §2

[4] = target: cyCD137-Fc (cynomolgus CD137 C-terminally fused to Fc) (cynomolgus); experiment: ELISA, cyCD137-Fc coated, detection anti-NGAL-HRP
Protocol: (§3) Recombinant huPD-L1-His or cyPD-L1-His (human or cynomolgus PD-L1 with a C-terminal polyhistidine tag, R&D Systems or Sino Biologics) at the concentration of 1 μg/mL in PBS was coated overnight on microtiter plates at 4° C. After washing with PBS-0.05% T (PBS supplemented with 0.05% (v/v) Tween 20), the plates were blocked with 2% BSA (w/v) in PBS-0.1% T (PBS supplemented with 0.1% (v/v) Tween 20) for 1 h at room temperature. […] Bound molecules under study were detected by incubation with 1:5000 diluted anti-human IgG Fc-HRP (Jackson Laboratory) in PBS-0.1% T-2% BSA. After an additional wash step, fluorogenic HRP substrate (QuantaBlu, Thermo) was added to each well and the fluorescence intensity was detected using a fluorescence microplate reader.
The same ELISA setup was also employed to determine the binding potency of fusion proteins to CD137, where huCD137-His (human CD137 with C-terminal polyhistidine tag, R&D Systems) or cyCD137-Fc (cynomolgus CD137 C-terminally fused to Fc) was instead coated on a microtiter plate. The testing agents were similarly titrated and bound agents were detected via anti-NGAL-HRP.

[5] = target: T3, cyPD-L1-His (cynomolgus PD-L1 with a C-terminal polyhistidine tag) (cynomolgus); experiment: ELISA, cyPD-L1-His coated, detection anti-human IgG Fc-HRP
T3 construct: Bought
Protocol: as §3

[6] = target: T4, huPD-L1-Fc (recombinant human PD-L1 Fc fusion) (human, UniProt Q9NZQ7 19-239); experiment: competitive ELISA, huPD-1-His coated, 15 nM huPD-L1-Fc tracer, binder titrated
T4 construct: Bought; also called tracer huPD-L1-Fc
Protocol: (§4) Recombinant huPD-1-His (Acrobiosystems) in PBS (1 μg/mL) was coated overnight on microtiter plates at 4° C. The plates were washed five times after each incubation step with 100 μL PBS-0.05% T (PBS supplemented with 0.05% (v/v) Tween 20). The plates were blocked with 2% BSA (w/v) in PBS-0.1% T (PBS supplemented with 0.1% (v/v) Tween 20) for 1 h at room temperature and subsequently washed again. […] The mixtures of fusion proteins and the tracer were added to the plates and incubated for 20 min at room temperature following by five washing steps with 100 μL PBS-0.05% T. Subsequently, a 1:5000 dilution of goat-anti human IgG-Fc HRP (Jackson) was added to the wells and incubated for 1 h. After an additional wash step, fluorogenic HRP substrate (QuantaBlu, Thermo) was added to each well, and the fluorescence intensity was detected using a fluorescence microplate reader.

[7] = target: T5, huPD-L1-His (human PD-L1 with a C-terminal polyhistidine tag) (human, UniProt Q9NZQ7 19-239); experiment: SPR (Biacore), binder captured by anti-human IgG Fc, huPD-L1-His in solution, 25 C, 1:1 model
T5 construct: Bought; also called biotinylated huPD-L1-His
Protocol: The binding kinetics and affinity of exemplary fusion proteins to huPD-L1-His or huCD137-His (human PD-L1 or human CD137 with a C-terminal polyhistidine tag, R&D Systems) were determined by surface plasmon resonance (SPR) using a Biacore 8K or a Biacore T200 (GE Healthcare).
The anti-human IgG Fc antibody (GE Healthcare) was immobilized on a CM5 sensor chip using standard amine chemistry: the carboxyl groups on the chip were activated using 1-ethyl-3-(3-dimethylaminopropyl)-carbodiimide (EDC) and N-hydroxysuccinimide (NHS). Subsequently, anti-human IgG Fc antibody solution (GE Healthcare) at a concentration of 25 μg/mL in 10 mM sodium acetate (pH 5.0) was applied at a flow rate of 5 μL/min until an immobilization level of 6000-10000 resonance units (RU) was achieved. Residual non-reacted NHS-esters were blocked by passing a solution of 1M ethanolamine across the surface. The reference channel was treated in an analogous manner. […] After each capture step, the needle was washed.
Double referencing was used and the 1:1 binding model was used to fit the raw data.

[8] = target: T6, biotinylated huCD137-Fc (human CD137 Fc fusion) (human, UniProt Q07011 24-186, biotinylated); experiment: competitive ELISA, antibody SEQ ID NOs: 28 and 29 coated (competitor), 1 nM huCD137-Fc-bio tracer, binder titrated
T6 construct: Bought; also called huCD137-Fc-bio
Protocol: as §4, with “The” for “Recombinant huPD-1-His (Acrobiosystems) in PBS (1 μg/mL) was coated overnight on microtiter plates at 4° C. The”, “testing molecules” for “fusion proteins”, “ExtrAvidin-HRP (Sigma-Aldrich) in PBS-0.1% T-2% BSA” for “goat-anti human IgG-Fc HRP (Jackson)”
Competition data for an exemplary experiment are shown in FIG. 14, where the x-axis represents testing molecule concentration and the y-axis represents the measured trace molecule concentration. The data were fit to a 1:1 sigmoidal curve, where the IC₅₀ value and the maximum signal were free parameters, and the slope was fixed to unity.

EC50 [nM] With RKO cells (CD137 Bioassay, NFκB-luc2/CD137 Jurkat luminescence) [1]: 0.0889 nM
EC50 [2]: 6.48 nM
EC50 [3]: 1.41 nM
EC50 [4]: 13 nM
EC50 [5]: 0.18 nM
IC50 [6]: 3 nM
Kd [7]: 0.568 nM
koff [7]: 0.000748 s⁻¹
kon [7]: 1.32e+06 M⁻¹ s⁻¹
IC50 [8]: 0.99 nM
B1: fusion protein SEQ ID NOs: 86 and 91 (bispecific antibody, human IgG4 S228P, kappa, F234A L235A)
heavy: not shown
light: EIVLTQSPDTLSVTPKEKVTLTCRASQSIGTNIHWFQQKPGQSPKLLIKYASESISGVPSRFSGSGSGTDFTLTINSVEAEDAATYYCQQSNSWPYTFGQGTKLEIKRTVAAPSVFIFPPSDEQLKSGTASVVCLLNNFYPREAKVQWKVDNALQSGNSQESVTEQDSKDSTYSLSSTLTLSKADYEKHKVYACEVTHQGLSSPVTKSFNRGECGGGGSGGGGSGGGGSQDSTSDLIPAPPLSKVPLQQNFQDNQFHGKWYVVGQAGNIRLREDKDPIKMMATIYELKEDKSYDVTMVKFDDKKCMYDIWTFVPGSQPGEFTLGKIKSFPGHTSSLVRVVSTNYNQHAMVFFKFVFQNREEFYITLYGRTKELTSELKENFIRFSKSLGLPENHIVFPVPIDQCIDG
notes: Antibody-lipocalin mutein fusion, IgG4 S228P backbone; Bivalent to CD137

EC50 [nM] With RKO cells (CD137 Bioassay, NFκB-luc2/CD137 Jurkat luminescence) [1]: 0.0809 nM
EC50 [2]: 3.74 nM
EC50 [3]: 4.48 nM
EC50 [4]: 5.9 nM
EC50 [5]: 0.13 nM
IC50 [6]: 2.3 nM
Kd [7]: 0.592 nM
koff [7]: 0.000769 s⁻¹
kon [7]: 1.3e+06 M⁻¹ s⁻¹
IC50 [8]: 1.1 nM
B2: fusion protein SEQ ID NOs: 90 and 87 (bispecific antibody, human IgG4 S228P, kappa, F234A L235A)
heavy: not shown
light: EIVLTQSPDTLSVTPKEKVTLTCRASQSIGTNIHWFQQKPGQSPKLLIKYASESISGVPSRFSGSGSGTDFTLTINSVEAEDAATYYCQQSNSWPYTFGQGTKLEIKRTVAAPSVFIFPPSDEQLKSGTASVVCLLNNFYPREAKVQWKVDNALQSGNSQESVTEQDSKDSTYSLSSTLTLSKADYEKHKVYACEVTHQGLSSPVTKSFNRGEC
notes: Bivalent to CD137
